The target in test [1] is GST-HTTex1p 51QP (expanded HTT exon 1 with the proline-rich region). The experiment in a line: pull-down.
The target of test [2] is GST-HTTex1p 20QP (unexpanded HTT exon 1 with the proline-rich region). Kind of test: pull-down.

As for “radiolabeled human PIAS1 (from UniProt O75925-1 1-651) (natural protein)”, the values for the percent of 35S-labeled PIAS1 bound in test [1] and in test [2] were 7% and 7.75%, respectively.

Values taken from publication PMC3931302.
